According to US20160237160A1, “ANTI-TWEAKR ANTIBODIES AND USES THEREOF” (BAYER PHARMA AKTIENGESELLSCHAFT, priority 2013, published 2016):

Biological target: T1, TWEAKR protein (TPP-2305) (Homo sapiens, UniProt Q9NP84)
T1 construct: TPP-2305; hTNFRSF12Aaa28-80; Human; 30R-AT080; 168; purchased Fitzgerald Inc 30R-AT080
Test: Biacore monovalent KD with TWEAKR protein
Format: binding
Protocol: Binding affinities of anti-TWEAKR antibodies were determined by surface plasmon resonance analysis on a Biacore T100 instrument (GE Healthcare Biacore, Inc.). Antibodies were immobilized onto a CM5 sensor chip through an indirect capturing reagent, anti-human IgG(Fc). Reagents from the “Human Antibody Capture Kit” (BR-1008-39, GE Healthcare Biacore, Inc.) were used as described by the manufacturer. Anti-TWEAKR antibodies were injected at a concentration of 10 μg/ml at 10 μl/min for 10 sec.
Sensorgrams were generated after in-line reference cell correction followed by buffer sample subtraction. The dissociation equilibrium constant (KD) was calculated based on the ratio of association (kon) and dissociation rated (koff) constants, obtained by fitting sensorgrams with a first order 1:1 binding model.

ka (first order 1:1 binding model): 1.32e+06 M⁻¹ s⁻¹ | kd (first order 1:1 binding model): 0.000564 s⁻¹ | Kd (monovalent KD): 0.4 nM
B1: P2D3(TPP-2196): reference anti-TWEAKR antibody, murine IgG2a, from WO2009/140177; SEQ ID NO 131/132 (protein)
light: DIVLTQSPASLAVSLGQRATISCRASKSVSTSSYSYMHWYQQKPGQPPKLLIKYTSNLESGVPARFSGSGSGTDFILNIHPVEEEDAATYYCQHSRELPWTFGGGTKLEIKRADAAPTVSIFPPSSEQLTSGGASVVCFLNNFYPKDINVKWKIDGSERQNGVLNSWTDQDSKDSTYSMSSTLTLTKDEYERHNSYTCEATHKTSTSPIVKSFNRNEC
heavy: QVSLKESGPGILQPSQTLSLTCSFSGFSLSTSGMGVSWIRQPSGKGLEWLAHIYWDDDKRYNPSLKSRLTISKDTSRNQVFLKITSVDTADTATYYCARRGPDYYGYYPMDYWGQGTSVTVSAKTTAPSVYPLAPVCGDTTGSSVTLGCLVKGYFPEPVTLTWNSGSLSSGVHTFPAVLQSDLYTLSSSVTVTSSTWPSQSITCNVAHPASSTKVDKKIEPRGPTIKPCPPCKCPAPNLLGGPSVFIFPPKIKDVLMISLSPIVTCVVVDVSEDDPDVQISWFVNNVEVHTAQTQTHREDYNSTLRVVSALPIQHQDWMSGKEFKCKVNNKDLPAPIERTISKPKGSVRAPQVYVLPPPEEEMTKKQVTLTCMVTDFMPEDIYVEWTNNGKTELNYKNTEPVLDSDGSYFMYSKLRVEKKNWVERNSYSCSVVHEGLHNHHTTKSFSRTPG
modifications: Mus Musculus
